As usually defined, the stoichiometry N is the number of molecules, sites or subunits per partner or assembly.

Substitutions are numbered along the chain they refer to. Names and notes keep the numbering of the source.

The target in experiment [1] is SsgB of S. coelicolor, wild type, His6-tagged (Streptomyces coelicolor) (UniProt Q9L268). The experiment in a line: SEC. A general note: In gel filtration, larger molecules generally elute earlier.
Experiment [2] shares this target. The experiment in a line: crystal structure.
The target in experiment [3] is T1, FtsZ of S. coelicolor, C-terminal His-tag fusion (Streptomyces coelicolor, UniProt P45500 1-399).
T1 sequence (looked up): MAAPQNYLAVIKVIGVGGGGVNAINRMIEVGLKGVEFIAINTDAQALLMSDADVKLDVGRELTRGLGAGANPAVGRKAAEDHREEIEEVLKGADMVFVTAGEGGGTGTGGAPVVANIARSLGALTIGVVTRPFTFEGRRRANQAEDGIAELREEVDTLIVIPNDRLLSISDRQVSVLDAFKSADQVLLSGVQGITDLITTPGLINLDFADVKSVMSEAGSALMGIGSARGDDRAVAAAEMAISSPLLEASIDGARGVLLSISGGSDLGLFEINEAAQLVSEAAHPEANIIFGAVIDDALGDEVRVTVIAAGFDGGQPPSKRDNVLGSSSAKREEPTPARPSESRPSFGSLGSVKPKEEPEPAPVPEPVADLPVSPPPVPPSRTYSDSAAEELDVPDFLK
The experiment in a line: co-sedimentation.

Take “SsgB of S. coelicolor, wild type, His6-tagged (from UniProt Q9L268 1-137) (natural protein)”: the stoichiometry N in experiment [1] and in experiment [2] was 3 in each case.

B1: SsgB of S. coelicolor, wild type, His6-tagged (natural protein, Streptomyces coelicolor, UniProt Q9L268 1-137, looked up)
chain: MNTTVSCELHLRLVVSSESSLPVPAGLRYDTADPYAVHATFHTGAEETVEWVFARDLLAEGLHRPTGTGDVRVWPSRSHGQGVVCIALSSPEGEALLEAPARALESFLKRTDAAVPPGTEHRHFDLDQELSHILAES
With B1, the binding result in experiment [3] is “binds”.

B2: SsgB E120G of S. coelicolor, His6-tagged (natural protein, Streptomyces coelicolor, UniProt Q9L268 1-137, looked up)
chain: B1 chain with E120G
In the case of B2, the binding result in experiment [3] is on record as “binds”.

B3: SsgB E120A of S. coelicolor, His6-tagged (natural protein, Streptomyces coelicolor, UniProt Q9L268 1-137, looked up)
chain: B1 chain with E120A
Take B3: the binding result in experiment [3] is given as “binds”.

The record behind these values is paper doi:10.1101/860916 (bioRxiv, 2019).
